Experimental findings from publication doi:10.1101/2024.04.26.591398 (2024) are described below.

The assay addresses T1, FITC-casein (FITC label (FITC-casein)).
T1 chain: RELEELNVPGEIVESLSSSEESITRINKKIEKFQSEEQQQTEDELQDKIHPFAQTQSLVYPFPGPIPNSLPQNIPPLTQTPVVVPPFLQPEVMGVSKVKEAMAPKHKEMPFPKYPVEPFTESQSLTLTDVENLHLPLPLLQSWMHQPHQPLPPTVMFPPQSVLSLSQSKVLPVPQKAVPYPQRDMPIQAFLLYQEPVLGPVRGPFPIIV
The assay can be described thus: FP; competition: Ydj1 dissociating FITC-casein from Hsp104 R366E, ATPγS.

B1: Ydj1 (natural protein)
chain: MVKETKFYDILGVPVTATDVEIKKAYRKCALKYHPDKNPSEEAAEKFKEASAAYEILSDPEKRDIYDQFGEDGLSGAGGAGGFPGGGFGFGDDIFSQFFGAGGAQRPRGPQRGKDIKHEISASLEELYKGRTAKLALNKQILCKECEGRGGKKGAVKKCTSCNGQGIKFVTRQMGPMIQRFQTECDVCHGTGDIIDPKDRCKSCNGKKVENERKILEVHVEPGMKDGQRIVFKGEADQAPDVIPGDVVFIVSERPHKSFKRDGDDLVYEAEIDLLTAIAGGEFALEHVSGDWLKVGIVPGEVIAPGMRKVIEGKGMPIPKYGGYGNLIIKFTIKFPENHFTSEENLKKLEEILPPRIVPAIPKKATVDECVLADFDPAKYNRTRASRGGANYDSDEEEQGGEGVQCASQ
A word on the IC50: it is the point on the concentration scale where inhibition reaches its midpoint. A low value points to inhibition by little substance. For the molecule B1, the IC50 is around 20 µM.
